The supplement of paper PMC7877785
± gives the uncertainty stated by the source.

Test: self-splicing fitness, log relative to wild type (ln ratio); higher = more splicing; Tetrahymena group I intron in knt gene, E. coli kanamycin selection, DiMSum; sequences stand for … in CUCUCU…GGAGGGAAAAGUUAUCAGGCAUGCACCUGGUAGCUAGUCUUUAAACCAAUAGAUUGCAUCGGUUUAAAAGGCAAGACCGUCAAAUUGCGGGAAAGGGGUCAACAGCCGUUCAGUACCAAGUCUCAGGGGAAACUUUGAGAUGGCCUUGCAAAGGGUAUGGUAAUAAGCUGACGGACAUGGUCCUAACCACGCAGCCAAGUCCUAAGUCAACAGAUCUUCUGUUGAUAUGGAUGCAGUUCACAGACUAAAUGUCGGUCGGGGAAGAUGUAUUCUUCUCAUAAGAUAUAGUCGGACCUCUCCUUAAUGGGAGCUAGCGGAUGAAGUGAUGCAACACUGGAGCCGCUGGGAACUAAUUUGUAUGCGAAAGUAUAUUGAUUAGUUUUGGAGUACUCGUGGUCG
Summary of the method: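 A randomised library covering all eight P1ex-region intron nucleotides was built with the intron in the knt kanamycin-resistance gene on pET-22b(+) and held in E. coli BL21(DE3). Cells were grown overnight at 37°C or 30°C on LB agar, with or without 25 μg/mL kanamycin, plus 100 μg/mL carbenicillin, 50 μM IPTG and 0.2% rhamnose, and pooled colonies were amplicon-sequenced on an Illumina HiSeq 2500. DiMSum fitness is the error-weighted combination of wild-type-normalised replicate fold changes, kanamycin versus none.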

Row | Sequence | self-splicing fitness (ln) (30 °C) | self-splicing fitness (ln) (37 °C)
1 | UUCUAGCAAUAUUACGUCGA | -1.02 ± 0.13 | -0.474 ± 0.15
2 | UUCUAGCAAUAUUACGUCGU | -3.47 ± 0.26 | -2.19 ± 0.17
3 | UUCUAGCAAUAUUACGUGUG | -0.91 ± 0.06 | -0.542 ± 0.082
4 | UUCUAGCAAUAUUACGUUCU | -3.79 ± 0.46 | -1.26 ± 0.18
5 | UUCUAGCAAUAUUACGUUGA | -3.03 ± 0.22 | -1.47 ± 0.18
6 | UUGAAGCAAUAUUACGACGG | 0.0862 ± 0.13 | 0.756 ± 0.17
7 | UUGAAGCAAUAUUACGAGAU | -3.15 ± 0.18 | -2.87 ± 0.23
8 | UUGAAGCAAUAUUACGCAAU | -2.4 ± 0.21 | -2.02 ± 0.16
9 | UUGAAGCAAUAUUACGCCUG | 0.189 ± 0.11 | 0.0665 ± 0.12
10 | UUGAAGCAAUAUUACGCCUU | -2.96 ± 0.13 | -1.53 ± 0.14
11 | UUGAAGCAAUAUUACGCGAC | -2.19 ± 0.18 | -1.51 ± 0.29
12 | UUGAAGCAAUAUUACGCGAG | -0.254 ± 0.086 | 0.721 ± 0.12
13 | UUGAAGCAAUAUUACGCGCU | -1.72 ± 0.093 | -1 ± 0.13
14 | UUGAAGCAAUAUUACGCGGC | -1.63 ± 0.13 | -0.671 ± 0.19
15 | UUGAAGCAAUAUUACGCGUG | -0.176 ± 0.07 | -0.123 ± 0.099
16 | UUGAAGCAAUAUUACGGAAG | -1.12 ± 0.14 | -0.383 ± 0.2
17 | UUGAAGCAAUAUUACGGAUC | -0.951 ± 0.15 | -0.501 ± 0.18
18 | UUGAAGCAAUAUUACGGCCC | -3.04 ± 0.4 | -0.425 ± 0.2
19 | UUGAAGCAAUAUUACGGGAA | -0.195 ± 0.11 | -0.634 ± 0.15
20 | UUGAAGCAAUAUUACGGGCC | – | -2.14 ± 0.42
21 | UUGAAGCAAUAUUACGGUCG | 0.0283 ± 0.088 | 0.283 ± 0.1
22 | UUGAAGCAAUAUUACGGUGA | -0.275 ± 0.08 | -0.469 ± 0.09
23 | UUGAAGCAAUAUUACGGUUG | -0.894 ± 0.053 | -0.569 ± 0.07
24 | UUGAAGCAAUAUUACGUUCU | 0.25 ± 0.084 | -0.378 ± 0.1
25 | UUGAAGCAAUAUUACGUUGU | -2.87 ± 0.11 | -2.24 ± 0.16

Row | Sequence | self-splicing fitness (ln) (30 °C) | self-splicing fitness (ln) (37 °C)
26 | UUGCAGCAAUAUUACGACGU | -3.09 ± 0.29 | -1.11 ± 0.14
27 | UUGCAGCAAUAUUACGACUA | 0.37 ± 0.1 | 0.519 ± 0.12
28 | UUGCAGCAAUAUUACGACUU | -0.403 ± 0.1 | -0.588 ± 0.08
29 | UUGCAGCAAUAUUACGAGAU | -3.6 ± 0.34 | -2.64 ± 0.36
30 | UUGCAGCAAUAUUACGAUCU | -2.34 ± 0.22 | -1.78 ± 0.21
31 | UUGCAGCAAUAUUACGCAGA | -2.12 ± 0.11 | -1.95 ± 0.096
32 | UUGCAGCAAUAUUACGCAGU | – | -2.71 ± 0.39
33 | UUGCAGCAAUAUUACGCAUU | -1.92 ± 0.19 | -1.42 ± 0.18
34 | UUGCAGCAAUAUUACGCGAA | -0.925 ± 0.16 | -0.846 ± 0.14
35 | UUGCAGCAAUAUUACGCGGU | -3.63 ± 0.35 | –
36 | UUGCAGCAAUAUUACGCUAG | -2.94 ± 0.23 | -2.44 ± 0.24
37 | UUGCAGCAAUAUUACGGAAU | -2.83 ± 0.3 | –
38 | UUGCAGCAAUAUUACGGACU | -1.3 ± 0.18 | -1.7 ± 0.29
39 | UUGCAGCAAUAUUACGGAGG | -2.94 ± 0.16 | -2.73 ± 0.24
40 | UUGCAGCAAUAUUACGUACG | -0.368 ± 0.08 | 0.233 ± 0.1
41 | UUGCAGCAAUAUUACGUCAC | – | -1.35 ± 0.29
42 | UUGCAGCAAUAUUACGUCUG | -3.23 ± 0.16 | -2.32 ± 0.18
43 | UUGCAGCAAUAUUACGUGAA | -1.12 ± 0.069 | -0.162 ± 0.086
44 | UUGCAGCAAUAUUACGUGCA | -2.15 ± 0.13 | -1.27 ± 0.12
45 | UUGCAGCAAUAUUACGUUCG | -1.16 ± 0.049 | -0.636 ± 0.071
46 | UUGGAGCAAUAUUACGAAUG | -3.5 ± 0.2 | -2.31 ± 0.21
47 | UUGGAGCAAUAUUACGAAUU | -1.68 ± 0.31 | -0.925 ± 0.41
48 | UUGGAGCAAUAUUACGACAC | – | -2.36 ± 0.37
49 | UUGGAGCAAUAUUACGACGA | -0.765 ± 0.14 | 0.309 ± 0.21
50 | UUGGAGCAAUAUUACGACUG | -0.79 ± 0.46 | 0.294 ± 0.47
